B5: KAP1 RBCC (residues 50-413), wild type (domain or fragment, human, UniProt Q13263 50-413, looked up)
chain: SPAGGGAEALELLEHCGVCRERLRPEREPRLLPCLHSACSACLGPAAPAAANSSGDGGAAGDGTVVDCPVCKQQCFSKDIVENYFMRDSGSKAATDAQDANQCCTSCEDNAPATSYCVECSEPLCETCVEAHQRVKYTKDHTVRSTGPAKSRDGERTVYCNVHKHEPLVLFCESCDTLTCRDCQLNAHKDHQYQFLEDAVRNQRKLLASLVKRLGDKHATLQKSTKEVRSSIRQVSDVQKRVQVDVKMAILQIMKELNKRGRVLVNDAQKVTEGQQERLERQHWTMTKIQKHQEHILRFASWALESDNNTALLLSKKLIYFQLHRALKMIVDPVEPHGEMKFQWDLNAWTKSAEAFGKIVAERP
notes: KAP1 (TRIM28), human, UniProt Q13263, residues 50-413 (RING, B-box 1, B-box 2, coiled coil); rows of m3 with m3 give the step in the assay's format; also called KAP1 RBCC motif; KAP1 TRIM; not shown: His6, N-terminal, cleaved
B6: Twin-StrepII-MBP-ZNF93 KRAB (KRAB domain residues 1-71 of ZNF93) (domain or fragment)
chain: not shown
notes: ZNF93, UniProt P35789, KRAB domain residues 1-71; The MBP tag was also required for protein solubility; also called MBP-KRAB; ZNF93 MBP-KRAB; source: E. coli BL21 (DE3), purified (StrepTrap, Superdex 200 SEC); also coexpressed with KAP1 in E. coli and co-purified; not shown: Twin-StrepII, N-terminal, kept; MBP, N-terminal, kept

Columns and labels:
[1] = molecular target: the molecule itself; assay: SEC-MALS; RING-B-box 1 (WT at 33 to 610 µM; B-box 1 mutant); monomer to dimer; Superdex 75 (10/300), 20 mM Hepes pH 8, 0.2 M NaCl, 0.5 mM TCEP, 293 K
[2] = molecular target: the molecule itself; assay: SEC-MALS; full-length KAP1 and ZNF93 MBP-KRAB coexpressed in E. coli and co-purified (StrepTrap, SEC); Superose 6 (10/300), 20 mM Hepes pH 8, 0.5 M NaCl, 0.5 mM TCEP, 293 K; total protein 1.2 g/L
[3] = molecular target: B6; assay: as above; conditions: both partners purified
[4] = molecular target: the molecule itself; assay: SEC-MALS; KAP1 RBCC at low protein concentration (8.7 µM, 0.35 g/L); monomers to dimer; Superdex 200 (10/300), 20 mM Hepes pH 8, 0.5 M NaCl, 0.5 mM TCEP, 293 K
[5] = molecular target: B5; assay: SPR; Biacore T200, CM5 chip, MBP-KRAB immobilized (~600 RU), KAP1 RBCC flowed over (1:2 dilution series from 34 µM WT, 35 µM mutant), 20 mM Hepes pH 8.0, 0.5 M NaCl, 0.5 mM TCEP, 20 °C; biphasic kinetic model; conditions: both partners purified

B1: KAP1 RING-B-box 1 (RB1; residues 50-200) (domain or fragment, human, UniProt Q13263 50-200, looked up)
chain: SPAGGGAEALELLEHCGVCRERLRPEREPRLLPCLHSACSACLGPAAPAAANSSGDGGAAGDGTVVDCPVCKQQCFSKDIVENYFMRDSGSKAATDAQDANQCCTSCEDNAPATSYCVECSEPLCETCVEAHQRVKYTKDHTVRSTGPAKS
notes: KAP1 (TRIM28), human, UniProt Q13263, residues 50-200 (RING and B-box 1); also called RING-B-box 1 fragment; RING-Box-1 fragment; not shown: His6, N-terminal, cleaved
stoichiometry N [1]: 2

B2: full-length KAP1 (residues 1-835) (natural protein, human, UniProt Q13263 1-835, looked up)
chain: MAASAAAASAAAASAASGSPGPGEGSAGGEKRSTAPSAAASASASAAASSPAGGGAEALELLEHCGVCRERLRPEREPRLLPCLHSACSACLGPAAPAAANSSGDGGAAGDGTVVDCPVCKQQCFSKDIVENYFMRDSGSKAATDAQDANQCCTSCEDNAPATSYCVECSEPLCETCVEAHQRVKYTKDHTVRSTGPAKSRDGERTVYCNVHKHEPLVLFCESCDTLTCRDCQLNAHKDHQYQFLEDAVRNQRKLLASLVKRLGDKHATLQKSTKEVRSSIRQVSDVQKRVQVDVKMAILQIMKELNKRGRVLVNDAQKVTEGQQERLERQHWTMTKIQKHQEHILRFASWALESDNNTALLLSKKLIYFQLHRALKMIVDPVEPHGEMKFQWDLNAWTKSAEAFGKIVAERPGTNSTGPAPMAPPRAPGPLSKQGSGSSQPMEVQEGYGFGSGDDPYSSAEPHVSGVKRSRSGEGEVSGLMRKVPRVSLERLDLDLTADSQPPVFKVFPGSTTEDYNLIVIERGAAAAATGQPGTAPAGTPGAPPLAGMAIVKEEETEAAIGAPPTATEGPETKPVLMALAEGPGAEGPRLASPSGSTSSGLEVVAPEGTSAPGGGPGTLDDSATICRVCQKPGDLVMCNQCEFCFHLDCHLPALQDVPGEEWSCSLCHVLPDLKEEDGSLSLDGADSTGVVAKLSPANQRKCERVLLALFCHEPCRPLHQLATDSTFSLDQPGGTLDLTLIRARLQEKLSPPYSSPQEFAQDVGRMFKQFNKLTEDKADVQSIIGLQRFFETRMNEAFGDTKFSAVLVEPPPMSLPGAGLSSQELSGGPGDGP
notes: KAP1 (TRIM28), human, UniProt Q13263, full length, residues 1-835; Purified as T4L-RBCC, that is without removal of the His6 tag; a TEV site (ENLYFQG) lies between tag and protein; also called TRIM28; TIF1β; source: also coexpressed with MBP-KRAB in E. coli and co-purified (StrepTrap, Superose 6 SEC); not shown: His6, N-terminal, kept
binding result [2]: binds
stoichiometry N [3]: 2 KAP1 per KRAB

B3: KAP1 RBCC V114A/Q123A/F125A/K127A (RING domain mutant) (domain or fragment, human, UniProt Q13263 50-413, looked up)
chain: SPAGGGAEALELLEHCGVCRERLRPEREPRLLPCLHSACSACLGPAAPAAANSSGDGGAAGDGTAVDCPVCKQACASADIVENYFMRDSGSKAATDAQDANQCCTSCEDNAPATSYCVECSEPLCETCVEAHQRVKYTKDHTVRSTGPAKSRDGERTVYCNVHKHEPLVLFCESCDTLTCRDCQLNAHKDHQYQFLEDAVRNQRKLLASLVKRLGDKHATLQKSTKEVRSSIRQVSDVQKRVQVDVKMAILQIMKELNKRGRVLVNDAQKVTEGQQERLERQHWTMTKIQKHQEHILRFASWALESDNNTALLLSKKLIYFQLHRALKMIVDPVEPHGEMKFQWDLNAWTKSAEAFGKIVAERP
notes: KAP1 (TRIM28), human, UniProt Q13263, RBCC residues 50-413 with four mutations in the RING domain; also called RBCC with RING domain mutations; source: E. coli BL21 (DE3), purified; not shown: His6, N-terminal, cleaved
binding result [4]: binds

B4: KAP1 RBCC N235A/A236D/K238A/D239A/F244A/L245A (B-box 2 mutant) (domain or fragment, human, UniProt Q13263 50-413, looked up)
chain: SPAGGGAEALELLEHCGVCRERLRPEREPRLLPCLHSACSACLGPAAPAAANSSGDGGAAGDGTVVDCPVCKQQCFSKDIVENYFMRDSGSKAATDAQDANQCCTSCEDNAPATSYCVECSEPLCETCVEAHQRVKYTKDHTVRSTGPAKSRDGERTVYCNVHKHEPLVLFCESCDTLTCRDCQLADHAAHQYQAAEDAVRNQRKLLASLVKRLGDKHATLQKSTKEVRSSIRQVSDVQKRVQVDVKMAILQIMKELNKRGRVLVNDAQKVTEGQQERLERQHWTMTKIQKHQEHILRFASWALESDNNTALLLSKKLIYFQLHRALKMIVDPVEPHGEMKFQWDLNAWTKSAEAFGKIVAERP
notes: KAP1 (TRIM28), human, UniProt Q13263, RBCC residues 50-413 with six mutations in and next to B-box 2; also called RBCC with the B-box 2 mutations; source: E. coli BL21 (DE3), purified; not shown: His6, N-terminal, cleaved
binding result [4]: binds

B5
stoichiometry N [4]: 2

B6
Kd [5]: 8 ± 2 nM
koff [5]: 0.00027 s⁻¹
kon [5]: 36000 M⁻¹ s⁻¹

From paper PMC6660772, “Structure of KAP1 tripartite motif identifies molecular interfaces required for retroelement silencing” (Proceedings of the National Academy of Sciences of the …, 2019)
